Measured values published in US20210122826A1 (MIT, published 2021).
Numbering of substitutions follows the chain as printed.

T1: Human KLRF1 (human, UniProt Q9NZS2 1-231)
T1 construct: also called hKLRF1
T1 sequence: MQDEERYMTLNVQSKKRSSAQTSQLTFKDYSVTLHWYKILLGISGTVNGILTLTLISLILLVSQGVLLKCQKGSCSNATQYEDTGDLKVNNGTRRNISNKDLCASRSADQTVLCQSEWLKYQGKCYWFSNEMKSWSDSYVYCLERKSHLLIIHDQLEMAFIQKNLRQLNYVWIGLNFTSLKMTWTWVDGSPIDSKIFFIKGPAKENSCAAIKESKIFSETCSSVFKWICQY

T2: Human CD94 (human, UniProt Q13241 1-179)
T2 construct: also called hCD94
T2 sequence: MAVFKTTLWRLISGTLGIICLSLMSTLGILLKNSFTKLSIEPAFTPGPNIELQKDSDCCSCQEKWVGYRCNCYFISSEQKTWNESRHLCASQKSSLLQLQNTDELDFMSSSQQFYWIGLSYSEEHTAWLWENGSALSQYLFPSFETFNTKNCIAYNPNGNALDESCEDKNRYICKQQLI

T3: Human KLRF2 (human, UniProt D3W0D1 1-207)
T3 construct: also called hKLRF2
T3 sequence: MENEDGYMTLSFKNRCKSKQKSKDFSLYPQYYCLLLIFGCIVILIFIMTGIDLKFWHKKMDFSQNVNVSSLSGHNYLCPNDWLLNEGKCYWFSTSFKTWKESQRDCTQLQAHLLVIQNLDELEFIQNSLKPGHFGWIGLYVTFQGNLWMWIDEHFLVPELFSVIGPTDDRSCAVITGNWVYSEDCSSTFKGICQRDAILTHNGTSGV

T4: Human Clec12B (human, UniProt Q2HXU8 1-276)
T4 construct: also called hClec12B
T4 sequence: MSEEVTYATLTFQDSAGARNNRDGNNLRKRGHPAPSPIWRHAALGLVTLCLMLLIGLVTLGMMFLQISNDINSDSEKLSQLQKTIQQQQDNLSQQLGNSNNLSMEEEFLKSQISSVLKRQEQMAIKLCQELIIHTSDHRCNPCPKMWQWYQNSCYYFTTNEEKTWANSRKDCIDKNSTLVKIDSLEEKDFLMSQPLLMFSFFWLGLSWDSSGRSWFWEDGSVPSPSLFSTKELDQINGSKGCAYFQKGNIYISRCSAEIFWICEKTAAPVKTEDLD

T5: Human Clec7A (human, UniProt Q9BXN2 1-247)
T5 construct: also called hClec7A
T5 sequence: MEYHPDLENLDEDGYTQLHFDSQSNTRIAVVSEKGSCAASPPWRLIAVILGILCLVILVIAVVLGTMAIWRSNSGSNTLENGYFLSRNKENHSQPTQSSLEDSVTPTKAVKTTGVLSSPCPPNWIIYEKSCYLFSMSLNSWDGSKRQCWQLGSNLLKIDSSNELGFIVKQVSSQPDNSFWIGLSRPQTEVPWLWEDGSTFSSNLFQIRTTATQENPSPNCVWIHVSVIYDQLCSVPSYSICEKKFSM

T6: Human KLRG1 (human, UniProt Q96E93 1-195)
T6 construct: also called hKLRG1
T6 sequence: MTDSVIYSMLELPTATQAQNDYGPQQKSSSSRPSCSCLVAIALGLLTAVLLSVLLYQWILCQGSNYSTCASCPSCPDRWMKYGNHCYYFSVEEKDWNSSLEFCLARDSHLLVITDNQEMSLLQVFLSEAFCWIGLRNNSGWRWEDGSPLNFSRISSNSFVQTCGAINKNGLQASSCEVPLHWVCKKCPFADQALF

T7: Human Clec5A (human, UniProt Q9NY25 1-188)
T7 construct: also called hClec5A
T7 sequence: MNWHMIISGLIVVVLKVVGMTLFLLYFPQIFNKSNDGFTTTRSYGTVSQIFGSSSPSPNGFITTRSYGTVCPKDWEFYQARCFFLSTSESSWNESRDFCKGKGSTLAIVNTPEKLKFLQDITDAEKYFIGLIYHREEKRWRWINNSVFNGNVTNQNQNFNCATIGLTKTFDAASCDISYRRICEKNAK

T8: Human Clec4E (human, UniProt Q9ULY5 1-219)
T8 construct: also called hClec4E
T8 sequence: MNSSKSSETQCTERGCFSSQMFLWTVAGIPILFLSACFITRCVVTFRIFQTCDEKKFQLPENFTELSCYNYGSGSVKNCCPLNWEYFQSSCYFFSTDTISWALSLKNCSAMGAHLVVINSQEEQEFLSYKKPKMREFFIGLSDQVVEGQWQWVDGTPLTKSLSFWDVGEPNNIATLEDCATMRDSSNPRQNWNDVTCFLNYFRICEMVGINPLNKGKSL

T9: Human Clec10A (human, UniProt Q8IUN9 1-316)
T9 construct: also called hClec10A
T9 sequence: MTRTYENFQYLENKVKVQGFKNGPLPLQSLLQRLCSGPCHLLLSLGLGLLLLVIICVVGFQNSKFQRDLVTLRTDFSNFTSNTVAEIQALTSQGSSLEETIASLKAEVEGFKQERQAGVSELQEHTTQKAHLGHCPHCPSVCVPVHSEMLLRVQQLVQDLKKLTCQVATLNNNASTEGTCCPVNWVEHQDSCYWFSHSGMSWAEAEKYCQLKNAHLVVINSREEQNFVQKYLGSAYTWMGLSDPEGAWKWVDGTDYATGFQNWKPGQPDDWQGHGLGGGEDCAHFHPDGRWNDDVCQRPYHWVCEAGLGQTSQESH

B1: KW1.2.1 (antibody, V domains shown)
VH: EVQLVESGGGLVQPGGSLRLSCAASGSTFSSYAMSWVRQAPGKGLEWVSTISGSGGSTYYADSVKGRFTISRDNSRNTLYLQMNSLRAEDTAVYYCARGGLIPSGFDYWGQGTLVTVSS
VL: DIQMTQSPSSPSASVGDRVTITCRASQSISSYLNWYQQKPGKAPKLLIYAASSLLSGVPSRFSGSGSGTDFTLTISSLQPEDFATYYCQQTYSTPLTFGQGTKVEIK
B2: KM12.2.3 (antibody, human IgG1, V domains shown)
VH: EVQLVESGGGLVQPGGSLRLSCAASGFTFSSYAMSWIRQAPGKGLEWVSAISGSGGSIYYADSVKGRFTISRDNSKNTLYLQMNSLRAEDTAVYYCARGYSDSYFYGPYYTFDYWGQGTLVTVSS
VL: B1 VL with P11L, S28G, L55Q, P59S, T91S, S93N
B3: KW1.3.12 (antibody, human IgG1, V domains shown)
VH: B1 VH with S27F
VL: B1 VL with P11L, T94A
B4: KW7.3.7 (antibody, V domains shown)
VH: B1 VH with S27F, T50A, I51T, V64A, R76K, L101Y, I102L, S104D, G105A, Q111R
VL: B1 VL with P11L, R24W, K39E, L55Q
B5: KM12.4.7 (antibody, V domains shown)
VH: B2 VH with S21P, N84D
VL: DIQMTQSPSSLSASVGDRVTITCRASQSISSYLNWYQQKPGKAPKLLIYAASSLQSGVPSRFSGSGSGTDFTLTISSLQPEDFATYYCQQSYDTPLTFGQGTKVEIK
B6: KW9.3.3 (antibody, V domains shown)
VH: EVQLVESGGGLVQPGGSLRLSCAASGFTFSSYAMSWVRQAPGKGLEWVSAISGSGGRTYYADSVKGRFTISRDNSKNTLYLQMNSLRAEDTAMYYCARGPGYMYLYGDSFFEYWGQGTLVTVSS
VL: B1 VL with T5A, P11L, S28G, L55Q, S67Y, T91S
B7: KW7.2.2 (antibody, V domains shown)
VH: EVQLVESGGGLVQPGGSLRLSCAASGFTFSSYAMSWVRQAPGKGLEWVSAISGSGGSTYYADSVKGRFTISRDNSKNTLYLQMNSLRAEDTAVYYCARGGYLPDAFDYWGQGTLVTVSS
VL: B1 VL with P11L, K45R, L46F, L55Q
B8: KW17.3.4 (antibody, V domains shown)
VH: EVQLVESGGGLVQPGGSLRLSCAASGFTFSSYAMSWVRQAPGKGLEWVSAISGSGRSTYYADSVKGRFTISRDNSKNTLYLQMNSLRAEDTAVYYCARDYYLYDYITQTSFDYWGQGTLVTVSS
VL: QSVLTQPPSVSGAPGQRVTISCTGSSSNIGAGYDVHWYQQLPGTAPKLLIYGNSNRPSGVPDRFSGSQSGTSASLAITGLQAEDEADYYCQSYNSGHTVFGGGTQLTVL

Legend:
Assay in all cases: flow, Jurkat, 100 nM Ab
[1] = target: T10, human CD161 (human, UniProt Q12918 1-225)
T10 construct: UniProt Q12918; also called hCD161; KLRB1

[2] = target: T1, Human KLRF1
[3] = target: T2, Human CD94
[4] = target: T3, Human KLRF2
[5] = target: T4, Human Clec12B
[6] = target: T5, Human Clec7A
[7] = target: T6, Human KLRG1
[8] = target: T11, Human OLR1 (human, UniProt P78380 1-273)
T11 construct: also called hOLR1

[9] = target: T7, Human Clec5A
[10] = target: T12, Human Clec9A (human, UniProt Q6UXN8 1-241)
T12 construct: also called hClec9A
T12 sequence (Q6UXN8 whole entry): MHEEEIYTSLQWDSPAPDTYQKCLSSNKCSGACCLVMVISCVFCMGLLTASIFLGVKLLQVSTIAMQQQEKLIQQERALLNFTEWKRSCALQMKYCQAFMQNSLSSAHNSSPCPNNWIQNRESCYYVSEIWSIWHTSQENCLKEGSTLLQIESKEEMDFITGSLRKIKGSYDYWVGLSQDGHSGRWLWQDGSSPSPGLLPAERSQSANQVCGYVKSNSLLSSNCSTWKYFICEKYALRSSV

[11] = target: T8, Human Clec4E
[12] = target: T9, Human Clec10A

Row | Binder | MFI normalized to WT [1] | MFI normalized to WT [2] | MFI normalized to WT [3] | MFI normalized to WT [4] | MFI normalized to WT [5] | MFI normalized to WT [6] | MFI normalized to WT [7] | MFI normalized to WT [8] | MFI normalized to WT [9] | MFI normalized to WT [10] | MFI normalized to WT [11] | MFI normalized to WT [12]
1 | B1 | 172 | 1.14 | 1.13 | 1.05 | 1.11 | 1.25 | 1.24 | 1.28 | 1.13 | 1.24 | 0.99 | 0.94
2 | B2 | 122 | 1.18 | 1.36 | 1.37 | 1.33 | 1.11 | 1.42 | 1.33 | 1.41 | 1.42 | 1.68 | 1.44
3 | B3 | 163 | 1.02 | 1.07 | 1.08 | 1.1 | 1.38 | 1.25 | 1.24 | 1.19 | 1.11 | 1.17 | 0.9
4 | B4 | – | 1.19 | 1.01 | 1.03 | 1.05 | 1.18 | 1.06 | 1.15 | 1.08 | 1.01 | 0.88 | 0.89
5 | B5 | 166 | 1.14 | 1.2 | 1.13 | 1.12 | 1.36 | 1.25 | 1.3 | 1.31 | 1.17 | 1.01 | 1.01
6 | B6 | 150 | 0.8 | 0.84 | 0.9 | 0.94 | 1.03 | 0.93 | 0.9 | 0.93 | 0.94 | 0.85 | 0.86
7 | B7 | 145 | 1.18 | 1.29 | 1.12 | 1.37 | 1.46 | 1.3 | 1.42 | 1.24 | 1.42 | 1.1 | 0.9
8 | B8 | 143 | 0.91 | 0.97 | 1.03 | 1.09 | 1.16 | 1.08 | 1.03 | 1.12 | 1.13 | 0.97 | 0.98
